These results are taken from patent US20060241020A1, “Protein tyrosine phosphatase inhibitors” (Applied Research Systems ARS Holdings N.V., priority 2002, published 2006).

Square brackets hold non-standard residues; d marks the D form. Ends that are not written are not given here. pY = N[C@@H](Cc1ccc(OP(=O)(O)O)cc1)C(=O)O

The target of one assay is T1, Sap1 (Homo sapiens, UniProt Q9HD43).
T1 sequence (Q9HD43 820-1079 limits assumed): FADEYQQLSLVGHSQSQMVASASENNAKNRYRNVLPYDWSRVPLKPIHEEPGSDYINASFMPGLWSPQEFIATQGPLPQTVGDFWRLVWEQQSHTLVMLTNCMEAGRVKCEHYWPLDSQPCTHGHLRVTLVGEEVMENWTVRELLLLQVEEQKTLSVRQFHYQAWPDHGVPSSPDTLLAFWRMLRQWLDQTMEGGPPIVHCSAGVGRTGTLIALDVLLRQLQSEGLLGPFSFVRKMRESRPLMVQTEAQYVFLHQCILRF
Put plainly: Km of example phosphopeptide substrates (Table IX summary). It is filed as biochemical. To be noted: phosphopeptide as Sap1 substrate.

The next assay deals with SHP1 (Homo sapiens, UniProt P29350). To be noted: classification of Wang Peng et al. (68); cited from earlier work.
Chain of SHP1 (P29350 whole entry): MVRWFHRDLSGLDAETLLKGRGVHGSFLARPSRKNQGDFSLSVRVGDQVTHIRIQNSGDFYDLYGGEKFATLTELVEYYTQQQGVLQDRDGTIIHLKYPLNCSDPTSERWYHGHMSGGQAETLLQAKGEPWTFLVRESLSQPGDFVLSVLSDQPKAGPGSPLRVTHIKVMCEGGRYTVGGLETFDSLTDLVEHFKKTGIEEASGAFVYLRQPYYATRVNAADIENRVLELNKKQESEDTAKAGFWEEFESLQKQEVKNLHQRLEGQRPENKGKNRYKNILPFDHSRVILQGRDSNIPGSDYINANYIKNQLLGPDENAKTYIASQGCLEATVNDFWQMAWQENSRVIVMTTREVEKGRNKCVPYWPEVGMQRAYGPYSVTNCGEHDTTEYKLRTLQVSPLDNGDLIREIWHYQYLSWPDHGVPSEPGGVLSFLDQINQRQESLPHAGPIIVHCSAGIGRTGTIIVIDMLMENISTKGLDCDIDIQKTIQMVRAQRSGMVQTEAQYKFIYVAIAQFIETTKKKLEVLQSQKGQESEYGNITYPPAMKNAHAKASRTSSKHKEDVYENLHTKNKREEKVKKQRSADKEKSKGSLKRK

On to “EFpYGAFA/G (chain 1 EF[pY]GAFA; chain 2 EF[pY]GAFG)”, for which the Km (in general, the concentration of substrate that gives half-maximal velocity) with Sap1 was 7 µM.

As to “RNNEFpYA-NH2 (RNNEF[pY]A-NH2; N-terminus assumed; SMILES C[C@H](NC(=O)[C@H](Cc1ccc(OP(=O)(O)O)cc1)NC(=O)[C@H](Cc1ccccc1)NC(=O)[C@H](CCC(=O)O)NC(=O)[C@H](CC(N)=O)NC(=O)[C@H](CC(N)=O)NC(=O)[C@@H](N)CCCNC(=N)N)C(N)=O) [SHP-1 peptide of Wang Peng et al., excluded from the invention]”, the “Substrate class for SHP-1” value with SHP1 is recorded as “class 3”.
